The values that follow come from US20160194394A1 (GOVERNING COUNCIL OF THE UNIVERSITY OF TORONTO, published 2016).

Assay [1] has as its target T1, recombinant Frizzled receptor 7 (FZD7) cysteine-rich domain (CRD) fused to the Fc region of human IgG (human, UniProt O75084 33-185). In words: ELISA, 10ug/ml (200nM) Fab. The protocol:
(§1) FIG. 2B is a table depicting the binding of purified Fabs to purified FZD7-Fc measured by ELISA. Fabs purified from 25 ml bacterial cultures were assayed for binding to FZD7-Fc fusion protein (R&D systems) and Fc protein. ELISA plates (384 well) were coated with 2 ug/ml of protein in PBS overnight at four degrees. Wells were blocked with 0.5% BSA/PBS for 1 hour at room temperature, washed three times with 0.05% Tween20/PBS (wash buffer), and then primary dilutions of Fabs in 0.5% BSA/0.05% Tween20/PBS (dilution buffer) were added at indicated concentrations. Fabs were incubated for 1 hour at room temperature, wells were washed six times, and anti-FLAG-HRP (Sigma) was added at 1:5000 in dilution buffer. Secondary antibody was incubated for 45 minutes at room temperature, and wells were washed six times and developed with TMB substrate with an acid stop. The absorbance at 450 nm was read. n.t.=not tested.
(In general: ELISA stands for enzyme-linked immunosorbent assay.)

The target of assay [2] is T2, Fc control protein.
T2 construct: also called Fc protein; control Fc protein
Description: ELISA, 10ug/ml (200nM) Fab. The protocol: as §1

Assay [3] addresses T3, FZD7 receptor expressed on cells (full-length) (UniProt O75084 33-574, limits assumed).
T3 construct: whole, on cells; MDA MB 231 cells may carry other Frizzled receptors too; also called full-length FZD7 receptor; endogenous receptor on MDA MB 231 cells
In words: flow cytometry, 200 nM Fab, MDA MB 231. The protocol: (§2) FIG. 3 is a table depicting the binding of the purified Fabs to cells expressing FZD7 (flow cytometry). Small scale Fabs were assayed for binding to full-length FZD7 receptor to an over-expression line in MDA MB 231 cells. In parallel, Fabs were assayed for binding to endogenous receptor expressed on the MDA MB 231 cells. Cells were harvested using an EDTA solution, blocked in 2% FBS/PBS (stain buffer), and stained with 200 nM Fab for 30 min on ice. Cells were washed two times with stain buffer and incubated with anti-F(ab′)₂-APC secondary antibody (Jackson Immuno) at 1:1000 for 15 minutes on ice. All antibodies were diluted in stain buffer. Cells were washed three times with stain buffer and then fixed with 1% paraformaldehye for analysis by flow cytometry. […] The percent of the cell population within the positive gates is indicated.

Assay [4] has as its target T3, FZD7 receptor expressed on cells …. Description: flow cytometry, 200 nM Fab, FZD7 over-expression line (MDA MB 231). The protocol:
as §2

The target in assay [5] is T1, recombinant Frizzled receptor 7 (FZD7) …. In words: ELISA, 1ug/ml (20nM) Fab. The protocol: as §1
Assay [6] concerns the target T2, Fc control protein. Description: ELISA, 1ug/ml (20nM) Fab. The protocol:
as §1

Assay [7] concerns the target T2, Fc control protein. In words: ELISA, 10ug/ml (200nM) Fab [cont'd]. The protocol:
as §1

For assay [8], the target named is T2, Fc control protein. In words: ELISA, 1ug/ml (20nM) Fab [cont'd]. The protocol: as §1
For assay [9], the target named is T3, FZD7 receptor expressed on cells …. In words: flow cytometry, 200 nM Fab, FZD7 over-expression line (MDA MB 231) [cont'd]. The protocol: as §2
For orientation: Flow cytometry measures light scatter and fluorescence of single cells or particles in a stream.

Assay [10] shares this target. In words: flow cytometry, 200 nM Fab, MDA MB 231 [cont'd]. The protocol: as §2

B1: C11 (Fab)
light: DIQMTQSPSSLSASVGDRVTITCRASQSVSSAVAWYQQKPGKAPKLLIYSASSLYSGVPSRFSGSRSGTDFTLTISSLQPEDFATYYCQQGHYYPYYLFTFGQGTKVEIKRTVAAPSVFIFPPSDSQLKSGTASVVCLLNNFYPREAKVQWKVDNALQSGNSQESVTEQDSKDSTYSLSSTLTLSKADYEKHKVYACEVTHQGLSSPVTKSFNRGECGGS
heavy: EVQLVESGGGLVQPGGSLRLSCAASGFNIYYSYMHWVRQAPGKGLEWVASIYSYSGYTYYADSVKGRFTISADTSKNTAYLQMNSLRAEDTAVYYCARSVWGYPYGMDYWGQGTLVTVSSASTKGPSVFPLAPSSKSTSGGTAALGCLVKDYFPEPVTVSWNSGALTSGVHTFPAVLQSSGLYSLSSVVTVPSSSLGTQTYICNVNHKPSNTKVDKKVEPKSC
notes: selection round 2; also called Fzd7-R2-C11
Turning to B1, the “OD 450” value was 1.09 in assay [1], 0.06 with Fc control protein [2], 0.24 in assay [5] and 0.07 in the assay with Fc control protein [6]. Moreover, the “% population within the positive gate” value is 1% in assay [3] and 42% in assay [4].

B2: D5 (Fab)
light: DIQMTQSPSSLSASVGDRVTITCRASQSVSSAVAWYQQKPGKAPKLLIYSASSLYSGVPSRFSGSRSGTDFTLTISSLQPEDFATYYCQQAYYLITFGQGTKVEIKRTVAAPSVFIFPPSDSQLKSGTASVVCLLNNFYPREAKVQWKVDNALQSGNSQESVTEQDSKDSTYSLSSTLTLSKADYEKHKVYACEVTHQGLSSPVTKSFNRGECGGS
heavy: EVQLVESGGGLVQPGGSLRLSCAASGFNIYYSSIHWVRQAPGKGLEWVASIYPSSGYTYYADSVKGRFTISADTSKNTAYLQMNSLRAEDTAVYYCARWAPHSSSWWSVYGWSAWAFDYWGQGTLVTVSSASTKGPSVFPLAPSSKSTSGGTAALGCLVKDYFPEPVTVSWNSGALTSGVHTFPAVLQSSGLYSLSSVVTVPSSSLGTQTYICNVNHKPSNTKVDKKVEPKSC
notes: selection round 2; also called Fzd7-R2-D5
Consider B2, for which the “OD 450” value in [1] was found to be 3.21; with Fc control protein [2] it was 0.17; in assay [5], 2.65; in the assay with Fc control protein [6] it was 0.06. Besides, the “% population within the positive gate” value in assay [3] was 3.9%; in [4], 88.1%.

B3: H11 (Fab)
light: DIQMTQSPSSLSASVGDRVTITCRASQSVSSAVAWYQQKPGKAPKLLIYSASSLYSGVPSRFSGSRSGTDFTLTISSLQPEDFATYYCQQYSGPITFGQGTKVEIKRTVAAPSVFIFPPSDSQLKSGTASVVCLLNNFYPREAKVQWKVDNALQSGNSQESVTEQDSKDSTYSLSSTLTLSKADYEKHKVYACEVTHQGLSSPVTKSFNRGECGGS
heavy: EVQLVESGGGLVQPGGSLRLSCAASGFNISSSYIHWVRQAPGKGLEWVAYIYPYYSYTYYADSVKGRFTISADTSKNTAYLQMNSLRAEDTAVYYCARSVTYHSSGWVPPWYWGYAFDYWGQGTLVTVSSASTKGPSVFPLAPSSKSTSGGTAALGCLVKDYFPEPVTVSWNSGALTSGVHTFPAVLQSSGLYSLSSVVTVPSSSLGTQTYICNVNHKPSNTKVDKKVEPKSC
notes: selection round 2; also called Fzd7-R2-H11
With B3, the “OD 450” value came out at 3.23 in [1], 0.06 in the assay with Fc control protein [2], 3.18 in assay [5] and 0.05 in the assay with Fc control protein [6].

B4: A10 (Fab, V domains shown)
VH: EVQLVESGGGLVQPGGSLRLSCAASGFNFSSSSIHWVRQAPGKGLEWVAYIYPYYGYTYYADSVKGRFTISADTSKNTAYLQMNSLRAEDTAVYYCARWVVAGHYGMDYWGQGTLVTVSS
VL: DIQMTQSPSSLSASVGDRVTITCRASQSVSSAVAWYQQKPGKAPKLLIYSASSLYSGVPSRFSGSRSGTDFTLTISSLQPEDFATYYCQQSYWPGWPITFGQGTKVEIKR
notes: selection round 3; also called Fzd7-R3-A10
B4: the “OD 450” value with Fc control protein [7] and with Fc control protein [8] was 0.05 each time.

B5: B8 (Fab)
light: DIQMTQSPSSLSASVGDRVTITCRASQSVSSAVAWYQQKPGKAPKLLIYSASSLYSGVPSRFSGSRSGTDFTLTISSLQPEDFATYYCQQSSYSLITFGQGTKVEIKRTVAAPSVFIFPPSDSQLKSGTASVVCLLNNFYPREAKVQWKVDNALQSGNSQESVTEQDSKDSTYSLSSTLTLSKADYEKHKVYACEVTHQGLSSPVTKSFNRGECGGS
heavy: EVQLVESGGGLVQPGGSLRLSCAASGFNISSYYIHWVRQAPGKGLEWVASISSSYGYTYYADSVKGRFTISADTSKNTAYLQMNSLRAEDTAVYYCARPWSHYSSGAYWHPWSGHALDYWGQGTLVTVSSASTKGPSVFPLAPSSKSTSGGTAALGCLVKDYFPEPVTVSWNSGALTSGVHTFPAVLQSSGLYSLSSVVTVPSSSLGTQTYICNVNHKPSNTKVDKKVEPKSC
notes: selection round 2; also called Fzd7-R2-B8
Take B5: the “OD 450” value in [1] amounted to 1.16; in the assay with Fc control protein [2], 0.05; in [5], 0.24; with Fc control protein [6], 0.05. Moreover, the “% population within the positive gate” value was 2.8% in [3] and 80.9% in assay [4].

B6: B12 (Fab, V domains shown)
VH: EVQLVESGGGLVQPGGSLRLSCAASGFNLSYSYMHWVRQAPGKGLEWVASISSSYGYTYYADSVKGRFTISADTSKNTAYLQMNSLRAEDTAVYYCARAAGPYWYSYWYSAMDYWGQGTLVTVSS
VL: DIQMTQSPSSLSASVGDRVTITCRASQSVSSAVAWYQQKPGKAPKLLIYSASSLYSGVPSRFSGSRSGTDFTLTISSLQPEDFATYYCQQSSYSLITFGQGTKVEIKR
notes: selection round 2; also called Fzd7-R2-B12
On to B6, for which the “OD 450” value in the assay with Fc control protein [7] came out at 0.06; with Fc control protein [8], 0.05. Also, the results for the “% population within the positive gate” value in assay [9] and in [10] were 74.6% and 0.9%, respectively.

B7: C8 (Fab)
light: DIQMTQSPSSLSASVGDRVTITCRASQSVSSAVAWYQQKPGKAPKLLIYSASSLYSGVPSRFSGSRSGTDFTLTISSLQPEDFATYYCQQYSPSSFLITFGQGTKVEIKRTVAAPSVFIFPPSDSQLKSGTASVVCLLNNFYPREAKVQWKVDNALQSGNSQESVTEQDSKDSTYSLSSTLTLSKADYEKHKVYACEVTHQGLSSPVTKSFNRGECGGS
heavy: EVQLVESGGGLVQPGGSLRLSCAASGFNIYYSYIHWVRQAPGKGLEWVASISSSSGYTSYADSVKGRFTISADTSKNTAYLQMNSLRAEDTAVYYCARSYGYYYYFYYYGGMDYWGQGTLVTVSSASTKGPSVFPLAPSSKSTSGGTAALGCLVKDYFPEPVTVSWNSGALTSGVHTFPAVLQSSGLYSLSSVVTVPSSSLGTQTYICNVNHKPSNTKVDKKVEPKSC
notes: selection round 2; also called Fzd7-R2-C8
For B7, the “OD 450” value in assay [1] is 1.36; with Fc control protein [2], 0.09; in assay [5], 0.55; in the assay with Fc control protein [6] it was 0.05. In addition, the figures for the “% population within the positive gate” value in [3] and in assay [4] were 2.7% and 83.5%, respectively.

B8: D2 (Fab)
light: DIQMTQSPSSLSASVGDRVTITCRASQSVSSAVAWYQQKPGKAPKLLIYSASSLYSGVPSRFSGSRSGTDFTLTISSLQPEDFATYYCQQSYSGWGPFTFGQGTKVEIKRTVAAPSVFIFPPSDSQLKSGTASVVCLLNNFYPREAKVQWKVDNALQSGNSQESVTEQDSKDSTYSLSSTLTLSKADYEKHKVYACEVTHQGLSSPVTKSFNRGECGGS
heavy: EVQLVESGGGLVQPGGSLRLSCAASGFNISSSYIHWVRQAPGKGLEWVASISSSSSYTYYADSVKGRFTISADTSKNTAYLQMNSLRAEDTAVYYCARSAYPFSWSYPSYVGYYSGLDYWGQGTLVTVSSASTKGPSVFPLAPSSKSTSGGTAALGCLVKDYFPEPVTVSWNSGALTSGVHTFPAVLQSSGLYSLSSVVTVPSSSLGTQTYICNVNHKPSNTKVDKKVEPKSC
notes: selection round 2; also called Fzd7-R2-D2
Regarding B8, the “OD 450” value in assay [1] was determined as 1.6; with Fc control protein [2] it was 0.05; in assay [5], 0.5; with Fc control protein [6], 0.06. The “% population within the positive gate” value in [3] amounted to 0.8%; in [4], 75.2%.
